In paper PMC3958441, “Isl1 and Pou4f2 Form a Complex to Regulate Target Genes in Developing Retinal Ganglion Cells” (PLoS ONE, 2014):

B1: SBRN3(W) (dsDNA)
DNA 1: GCACACGACCCAATGAATTAATAACCGGGCTG
DNA 2: GCAGCCCGGTTATTAATTCATTGGGTCGTGTG
B2: CBRN3(W) (dsDNA)
DNA 1: GATCTCTCCTGCATAATTAATTACCCCCGGAT
DNA 2: GATCCGGGGGTAATTAATTATGCAGGAGAGAT

Assays:
Experiment in all cases: EMSA; EMSA: 20 mM Tris-HCl pH 7.5, 50 mM NaCl, 10 mM DTT, 1 mM EDTA, 5% glycerol, 200 ng dI/dC, 200 ng each protein in 20 ul, 4 C, 30 min; 8% PAGE, 1x TBE, 4 C
Pou4f2D3 = biological target: T1, Pou4f2D3 (mouse, UniProt Q63934 240-411); details: protein: recombinant; tags: His (C-terminal); (radiolabel, Klenow fill-in); 5' overhang 1 nt at both ends before fill-in
T1 sequence: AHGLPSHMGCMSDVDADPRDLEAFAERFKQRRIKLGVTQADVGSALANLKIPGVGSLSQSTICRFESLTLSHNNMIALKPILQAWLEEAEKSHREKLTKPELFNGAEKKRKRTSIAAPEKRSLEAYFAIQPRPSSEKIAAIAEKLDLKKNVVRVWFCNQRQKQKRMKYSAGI

Pou4f2 (Brn3b) = biological target: T2, Pou4f2 (Brn3b) (mouse, UniProt Q63934 1-411); details: protein: recombinant; tags: His (C-terminal, pET-28a); (radiolabel, Klenow fill-in); 5' overhang 1 nt at both ends before fill-in
T2 sequence: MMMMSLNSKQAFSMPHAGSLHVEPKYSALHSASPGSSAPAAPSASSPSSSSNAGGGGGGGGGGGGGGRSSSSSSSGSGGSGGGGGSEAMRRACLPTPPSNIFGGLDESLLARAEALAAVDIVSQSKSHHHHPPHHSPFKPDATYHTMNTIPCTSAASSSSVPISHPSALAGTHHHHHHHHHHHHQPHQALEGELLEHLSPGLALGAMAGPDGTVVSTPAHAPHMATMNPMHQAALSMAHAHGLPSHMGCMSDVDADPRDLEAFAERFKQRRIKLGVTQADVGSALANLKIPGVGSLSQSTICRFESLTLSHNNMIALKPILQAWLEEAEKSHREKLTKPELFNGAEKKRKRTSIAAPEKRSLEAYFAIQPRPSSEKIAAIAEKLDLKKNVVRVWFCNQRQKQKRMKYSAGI

Isl1D5 = biological target: T3, Isl1D5 (mouse, UniProt P61372 74-349); details: protein: recombinant; tags: His (C-terminal); (radiolabel, Klenow fill-in); 5' overhang 1 nt at both ends before fill-in
T3 sequence: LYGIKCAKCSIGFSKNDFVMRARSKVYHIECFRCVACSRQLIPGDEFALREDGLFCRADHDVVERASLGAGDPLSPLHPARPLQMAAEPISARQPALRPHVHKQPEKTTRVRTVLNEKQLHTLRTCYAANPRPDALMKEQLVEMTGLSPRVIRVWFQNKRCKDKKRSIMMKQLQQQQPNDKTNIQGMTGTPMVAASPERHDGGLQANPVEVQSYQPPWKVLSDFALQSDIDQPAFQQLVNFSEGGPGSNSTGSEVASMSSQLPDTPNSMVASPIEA

Pou4f2D1 = biological target: T4, Pou4f2D1 (mouse, UniProt Q63934 1-260); details: protein: recombinant; tags: His (C-terminal); (radiolabel, Klenow fill-in); 5' overhang 1 nt at both ends before fill-in
T4 sequence: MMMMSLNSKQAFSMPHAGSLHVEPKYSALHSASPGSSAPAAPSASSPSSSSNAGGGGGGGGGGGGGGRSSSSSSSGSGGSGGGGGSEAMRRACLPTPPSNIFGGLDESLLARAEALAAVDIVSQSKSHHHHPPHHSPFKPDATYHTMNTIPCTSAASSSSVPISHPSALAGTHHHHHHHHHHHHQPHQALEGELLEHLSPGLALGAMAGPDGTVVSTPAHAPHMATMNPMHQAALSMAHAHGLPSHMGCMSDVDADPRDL

Binder | binding result (Pou4f2D3) | binding result (Pou4f2 (Brn3b)) | binding result (Isl1D5) | binding result (Pou4f2D1)
B1 | binds | binds | binds | no binding
B2 | binds | binds | binds | no binding
